For assay [1], the target named is T1, phosphorylated opsin (bovine, UniProt P02699 1-348, phosphorylated on the C-terminus by endogenous GRK1 (sites not given); no retinal (apo-protein)).
T1 construct: bovine opsin (apo-protein of rhodopsin), endogenous in ROS membranes; in isolated, washed ROS disc membranes, not on whole cells; also called Ops-P; OpsP
Nature of the assay: site-directed steady-state fluorescence; 1 uM labelled arrestin with 6 uM Ops-P in ROS membranes, 50 mM HEPES pH 8, low salt, 20 °C. Particulars: one partner purified.

For assay [2], the target named is T1, phosphorylated opsin. Nature of the assay: site-directed steady-state fluorescence; 1 uM labelled arrestin with 6 uM receptor in ROS membranes, 50 mM HEPES pH 7, low salt, 20 °C. Particulars: one partner purified.

Where a chain is given by its changes, count along the chain named. Numbers in names are those of the source.

T1 sequence (P02699 whole entry): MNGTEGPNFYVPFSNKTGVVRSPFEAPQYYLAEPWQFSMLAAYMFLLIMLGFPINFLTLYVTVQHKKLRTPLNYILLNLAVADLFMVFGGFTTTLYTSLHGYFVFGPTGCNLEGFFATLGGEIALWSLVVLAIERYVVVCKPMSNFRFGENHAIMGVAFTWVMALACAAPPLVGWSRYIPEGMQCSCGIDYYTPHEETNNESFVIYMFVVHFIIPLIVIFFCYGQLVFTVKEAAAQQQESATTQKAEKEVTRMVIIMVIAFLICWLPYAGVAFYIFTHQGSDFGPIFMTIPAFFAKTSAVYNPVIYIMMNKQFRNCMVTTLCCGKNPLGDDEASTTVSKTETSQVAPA

B1: arrestin I72NBD (natural protein, bovine, UniProt P08168 1-404, looked up)
chain: MKANKPAPNHVIFKKISRDKSVTIYLGKRDYIDHVERVEPVDGVVLVDPELVKGKRVYVSLTAAFRYGQEDCDVMGLSFRRDLYFSQVQVFPPVGASGATTRLQESLIKKLGANTYPFLLTFPDYLPSSVMLQPAPQDVGKSAGVDFEIKAFATHSTDVEEDKIPKKSSVRLLIRKVQHAPRDMGPQPRAEASFQFFMSDKPLRLAVSLSKEIYYHGEPIPVTVAVTNSTEKTVKKIKVLVEQVTNVVLYSSDYYIKTVAAEEAQEKVPPNSSLTKTLTLVPLLANNRERRGIALDGKIKHEDTNLASSTIIKEGIDKTVMGILVSYQIKVKLTVSGLLGELTSSEVATEVPFRLMHPQPEDPDTAKESFQDENFVFEEFARQNLKDAGEYKEEKTDQEAAMDE
modifications: NBD fluorophore (IANBD) on the cysteine at site 72
notes: recombinant bovine arrestin-1 mutant; also called arrestin-1 C63A, C128S, C143A, W194F, I72C labelled with IANBD; source: E. coli, purified
In the case of B1, the “fluorescence increase relative to that with Meta II-P” value was around 18% with phosphorylated opsin [1] and around 45% with phosphorylated opsin [2].

B2: arrestin I299B/L173W (natural protein, bovine, UniProt P08168 1-404, looked up)
chain: B1 chain with C72I, L173W, I299C
modifications: bimane fluorophore (monobromobimane) on the cysteine at site 299
notes: recombinant bovine arrestin-1 mutant; also called arrestin-1 C63A, C128S, C143A, W194F, L173W, I299C labelled with monobromobimane; source: E. coli, purified
Consider B2, for which, in the assay with phosphorylated opsin [1], the “fluorescence change relative to that with Meta II-P” value was around 38%.

The record behind these values is publication PMC4923902 (Scientific Reports, 2016).
